Experiments:
[1] = molecular target: HER2 on cancer cells (MCF7, SKBR3, BT474, SKOV3, OVCAR3) (human) (UniProt P04626); experiment: flow cytometry, 100 nM memAb trastuzumab on SKOV3 cells, secondary anti-kappa-647 (secondary alone: 370)
[2] = molecular target: HER2 on cancer cells (MCF7, SKBR3, BT474, SKOV3, OVCAR3) (human) (UniProt P04626); experiment: flow cytometry on OVCAR3 cells; retelling of FIG. 16 with a different last digit (1436 there)
[3] = molecular target: HER2 on cancer cells (MCF7, SKBR3, BT474, SKOV3, OVCAR3) (human) (UniProt P04626); experiment: flow cytometry, 100 nM memAb trastuzumab on BT474 cells, secondary anti-kappa-647 (secondary alone: 392)
[4] = molecular target: HER2 on cancer cells (MCF7, SKBR3, BT474, SKOV3, OVCAR3) (human) (UniProt P04626); experiment: flow cytometry, 100 nM memAb trastuzumab on OVCAR3 cells, secondary anti-kappa-647 (secondary alone: 307)
[5] = molecular target: HER2 on cancer cells (MCF7, SKBR3, BT474, SKOV3, OVCAR3) (human) (UniProt P04626); experiment: flow cytometry, 100 nM memAb trastuzumab on MCF7 cells, secondary anti-kappa-647 (secondary alone: 338)
[6] = molecular target: HER2 on cancer cells (MCF7, SKBR3, BT474, SKOV3, OVCAR3) (human) (UniProt P04626); experiment: flow cytometry, 100 nM memAb trastuzumab on SKBR3 cells, secondary anti-kappa-647 (secondary alone: 330)
[7] = molecular target: HER2 on cancer cells (MCF7, SKBR3, BT474, SKOV3, OVCAR3) (human) (UniProt P04626); experiment: cell-based or functional assay

meditope-enabled I83E trastuzumab IgG (antibody)
median fluorescence intensity (MFI) [1]: 43200 | MFI [2]: 1440 | median fluorescence intensity (MFI) [3]: 31700 | median fluorescence intensity (MFI) [4]: 1440 | median fluorescence intensity (MFI) [5]: 985 | median fluorescence intensity (MFI) [6]: 34400 | EC50 of Jurkat-NFAT-Luc meditope-CAR cell activation (luminescence), co-culture with BT474 [7]: 0.26 nM | EC50 of Jurkat-NFAT-Luc meditope-CAR cell activation (luminescence), co-culture with MCF7 [7]: 0.42 nM | EC50 of Jurkat-NFAT-Luc meditope-CAR cell activation (luminescence), co-culture with SKBR3 [7]: 0.83 nM | EC50 of Jurkat-NFAT-Luc meditope-CAR cell activation (luminescence), co-culture with SKOV3 [7]: 0.35 nM | IC50 of cancer cell viability, BT474 co-incubated with memAb trastuzumab and FabRack T cells, 3 days [7]: 0.33 nM | IC50 of cancer cell viability, MCF7 co-incubated with memAb trastuzumab and FabRack T cells, 3 days [7]: 0.069 nM | IC50 of cancer cell viability, SKBR3 co-incubated with memAb trastuzumab and FabRack T cells, 3 days [7]: 0.11 nM | IC50 of cancer cell viability, SKOV3 co-incubated with memAb trastuzumab and FabRack T cells, 3 days [7]: 0.046 nM

From patent publication US20210061879A1
